Measured values from the nanobody polyreactivity screen of Harvey et al. (2022).

Assay: yeast display, Sf9 membrane polyspecificity reagent, FACS + sequencing; frameworks hold sequencing errors
Procedure, shortened: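 Polyreactivity labels are assigned by the sorting gate from which each nanobody was recovered. The gates were low and high (top ~1%), set on anti-HA fluorescence for expression and streptavidin fluorescence for reagent binding. Before sorting, galactose-induced (36–48 hours) yeast display cells were stained for 1 hour at 4 °C with 10% biotinylated, detergent-solubilized Sf9 membrane reagent.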

Sequence	polyreactivity (PSR sort gate)
QVQLVESGGGLVQAGGSLRLSCAASGPIFPAYAMGWYRQAPGKERELVASIRRGGITYADSVKGRFTISRDNAKNTVYLQMNSLKPEDTAVYYCNADYRGWGYHMDYWGQGTQVTVSS	low polyreactivity
QVQLVESGGGLVQAGGSLRLSCAASGPIIGQYAMVWYIQAPGKERELVAAITYSGGRTYYADSVKGRFTISRDNAKNTVYLQMNSLKPEDTAVYYCAARGRASFERRGGYYYWGQVTQVTVSS	high polyreactivity
QVQLVESGGGLVQAGGSLRLSCAASGPTFDYNAMGCYRPAPGKERELVAAIRFGGGSTYYADSVKGRFTISRDNAKNTVYFQINSLKPEDTAVYYCNASPLWIGWVIVPVGSSHYDYWGQGTQVTVSS	low polyreactivity
QVQLVESGGGLVQAGGSLRLSCAASGPTFKRYAMGWYRQAPGKERELVAAITGTGAITYYADSVKGRFTISRDNAKNTVYLQMNSLKPEDTAVYYCAALGYYRYKYQASSNGFDYWGQGTQVTVSS	high polyreactivity
QVQLVESGGGLVQAGGSLRLSCAASGPTFLVNAMGWYRQAPGKERELVATINWNAGSTYYADSVKGRFTISRDYAKNTVYLQMNSLKPEDTAVYYCAAPYEQAPTTDVSSLIPLHDYWGQGTQVTVSS	low polyreactivity
QVQLVESGGGLVQAGGSLRLSCAASGPTFRRYGMGWYRQAPGKERELVDAITTRGGSTYYADSVKGRFTISRDNAKNTVYLQMNSLKPEDTAVYYCAAPRKYFYSSATGNYWGQGTQVTVSS	high polyreactivity
QVQLVESGGGLVQAGGSLRLSCAASGPTFYYYAMGWYRQEPGKERELVAAIRVRGGSTYYADSVKGRFTISRDNAKNTVYLQMNSLKPEDTAVYYCAADHTFYGVHKYDYWGQGTQVTVSS	low polyreactivity
QVQLVESGGGLVQAGGSLRLSCAASGQIFHSYAMGWSRQAPGKERELVAAISRGGGSTYYADSVKGRFTISRDNAKNTVYLQMNSLKPEDTAVYYCARENLTRYDYWGQGTQVTVSS	high polyreactivity
QVQLVESGGGLVQAGGSLRLSCAASGQIFYRYAMGWDRQAPGKERELVAAISSGGSTYYADSVKGRFTISRDNAKNTVYLQMNSLKPEDTAVYYCNTGYWYVSLGSYDYYGEYDYWGQGTQVTVSS	high polyreactivity
QVQLVESGGGLVQAGGSLRLSCAASGRAFKRYAMGWYRQAPGKERELVAAITRSGGSTYYADSVTGRFTISRDKAKNTVYLQMNSLKPEDTAVYYCATRSYNNELEYWGQGTQVTVSS	high polyreactivity
QVQLVESGGGLVQAGGSLRLSCAASGRICTRNAMGWYRQAPGKERELVAAISWRGGSTYYADSVKGRFTISRDNAKNTVYLQMNSLKPEDTAVYYCNAYFLSQYQSAYRDDYWGQGTQVTVSS	high polyreactivity
QVQLVESGGGLVQAGGSLRLSCAASGRIFAANTMGWYRQAPGKEREFVAVIRGRGGSTYYADSVKGRFTISRDNAKNTVYLQMNSLKPEDTAVYYCAAYYKPYRERLYGYWGQGTQVTVSS	high polyreactivity
QVQLVESGGGLVQAGGSLRLSCAASGRIFAAYAMGWYRQAPGKERELVAAITRRGSTYYADSVKGRFTISRDNDKKTVYFQMNSLKPEDTAVYYCNKVPLFQYSTAWYDYWGQGTQVTVSS	high polyreactivity
QVQLVESGGGLVQAGGSLRLSCAASGRIFAAYAMGWYRQAPGKERELVAAITWDGDSTYYADSVKGRFTISRDNAKNTVYLQMNSLKPEDTAVYYCAAYWSTWYDWGQGTQVTVSS	high polyreactivity
QVQLVESGGGLVQAGGSLRLSCAASGRIFAAYAMGWYRQAPGKERELVAAITWRGGSTYYADSVKGRFTISRDNAKNTVYLQMNSLKPEDTAVYYCNARVYYYPGYDYWGQGTQVTVSS	low polyreactivity
QVQLVESGGGLVQAGGSLRLSCAASGRIFADYAMGWYRQAPGKETELVAAISSTSSTNYADSVKGRFTISRDNAKNTVYLQMNSLKPEDTAVYYCAKRIGHLPFRPYDYWGQGTQVTVSS	low polyreactivity
QVQLVESGGGLVQAGGSLRLSCAASGRIFAEYAMGWYIQATGKERELVASISRRGGSTYYADSVKGRFTISRDNAKNTVYLQMNSLKPEDTAVYYCAAVWAYYHTRYSTWGYDYWGQGTQVTVSS	high polyreactivity
QVQLVESGGGLVQAGGSLRLSCAASGRIFAFNAMGGYRQAPGKERELVAAITGRGGRTYYADSVKGRFTISRDHAKNTVYLQMNSLKPEDTAVYYCAAQRYINYDYWGQGTQVTVSS	high polyreactivity
QVQLVESGGGLVQAGGSLRLSCAASGRIFAFYAMGWYRQAPGKERELVAAISWDGGSSYYADSVKGRFTISRDNAKNTVYLQMNSLKPEDTAVYDCNKDLYYAYDYWGQGTQVTVSS	low polyreactivity
QVQLVESGGGLVQAGGSLRLSCAASGRIFAGYAMGWYRQAPGTERELVATITRGGSTNYADSVKRPFTISRDNAKNTVYLQMNSLKPEDTAVYYCNADIRRHGGYAHEYWGQGTKVTVSS	low polyreactivity
QVQLVESGGGLVQAGGSLRLSCAASGRIFAGYTMGWYRPAPGKERELVAAIRSSGRTHYADSVKGRFTISRDNAKNTVYLQMYSLKPEDTAVYYCAARWTYTFAYRFDYWGQGTQVTVSS	high polyreactivity
QVQLVESGGGLVQAGGSLRLSCAASGRIFAHFAMGGYRQAPGKEWELVAAIDSGGSTDYADSVKGRFTISRDNAKNTVYLQMNSLKPEDTAVYYCNAERAYLWWYNFDYWGQGTQVTVSS	low polyreactivity
